The results in this text go back to patent publication US11845963B2, “HSD17B13 variants and uses thereof” (Regeneron Pharmaceuticals, Inc., priority 2017, dated 2023).

Entries after “also recorded” stand apart in the source; their conditions may differ.

Data set [1] has as its system HepG2 cells overexpressing HSD17B13 Transcript A or D or GFP. Briefly: Quantification of intracellular triglyceride content in stable cell lines. The data set is classed as cell-based, human. To be noted: for intracellular triglyceride content of overexpressing cell lines versus GFP control: with oleic acid treatment, FIG. 10. Here is the method: HepG2 cells were cultured in Eagle's Minimum Essential Medium supplemented with 10% fetal bovine serum. HSD17B13 transcripts A and D were sub-cloned into Myc-DDK backbone lentivirus constructs, and lentivirus were generated. HepG2 cells were infected with lentivirus carrying the HSD17B13 transcripts. Stable cell lines expressing each HSD17B13 transcript were selected with 1-3 mg/ml Geneticin G-418 sulfate in complete culture medium for two weeks. Following fixation, HSD17B13 isoforms were detected with mouse anti-Myc antibody. Lipid droplets were labeled with BODIPY FL dye (Sigma). Secondary antibodies for immunofluorescence were Alexa Fluor 488 donkey anti-rabbit IgG and Alexa Fluor 594 donkey anti-mouse IgG (Jackson ImmunoResearch).
The triglyceride (TG) content from the stable cells was determined using a TG quantification kit (Abcam). In the assay, TG are converted to free fatty acids and glycerol. The glycerol is then oxidized to generate a product which is quantified (spectrophotometry at λ=570 nm).

For data set [2], the target named is T1, recombinant human HSD17B13 (Homo sapiens, UniProt Q7Z5P4).
T1 sequence (Q7Z5P4 20-300): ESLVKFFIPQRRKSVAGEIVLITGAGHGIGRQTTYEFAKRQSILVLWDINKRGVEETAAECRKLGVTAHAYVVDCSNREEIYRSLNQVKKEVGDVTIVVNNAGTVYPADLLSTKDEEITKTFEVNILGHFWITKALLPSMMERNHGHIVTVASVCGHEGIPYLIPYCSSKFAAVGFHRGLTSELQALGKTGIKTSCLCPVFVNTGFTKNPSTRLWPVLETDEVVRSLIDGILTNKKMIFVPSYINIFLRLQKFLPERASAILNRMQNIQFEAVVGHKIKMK
As to the kind of experiment: Substrate screening of steroid and bioactive lipid libraries against purified recombinant HSD17B13 (NADH-Glo). To be noted: 265 unique putative substrates tested. The data set is classed as biochemical. Here is the method: Reactions were performed in a final volume of 40 μl of assay buffer (0.2 M Tris-HCl, pH 7.5) which contained 500 μM NAD^+, 5 μM bioactive lipid or 50 μM steroid (all in a final concentration of 5% DMSO), and 100 ng recombinant human HSD17B13. Reactions were incubated for 3 hours, at 23° C. after which an equal volume NADH-Glo Detection Reagent (Promega) was added. Following a 1 hour incubation at 23° C., the relative light units (RLUs) were measured on an Envision Plate Reader (Perkin Elmer). Raw RLU values were normalized as percent of control (50 μM estradiol) following subtraction of negative control (5% DMSO) using the following formula: Percent of control (POC)=100×(Sample (RLU)−Negative CTRLaverage)/(Positive CTRLaverage−Negative CTRLaverage).

Data set [3] has as its target T2, recombinant human HSD17B13 (Homo sapiens, UniProt Q7Z5P4).
T2 construct: Transcript A, which encodes the full-length 300 amino acid protein; 10xHis (C); host or cells: E. coli
T2 sequence (Q7Z5P4 with tags, fused parts or gaps): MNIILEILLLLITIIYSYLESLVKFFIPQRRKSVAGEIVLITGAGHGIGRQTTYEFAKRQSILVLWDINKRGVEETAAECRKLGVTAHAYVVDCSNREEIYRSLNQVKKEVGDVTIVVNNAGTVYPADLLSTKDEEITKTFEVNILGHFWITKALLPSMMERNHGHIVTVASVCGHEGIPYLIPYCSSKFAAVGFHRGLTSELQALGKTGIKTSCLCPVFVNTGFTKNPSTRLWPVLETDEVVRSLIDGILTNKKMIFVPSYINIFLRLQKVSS
As to the kind of experiment: In vitro enzymatic activity of purified recombinant HSD17B13 isoforms A and D (NADH production, NAD(P)H-Glo). The data set is classed as biochemical. The settings on record: FIG. 4E. Here is the method:
Recombinant human HSD17B13 protein was purified from E. coli (Genscript) transformed with plasmid DNA harboring HSD17B13 transcript A or transcript D. The HSD17B13 variants contained a 10×His tag at the C terminus and were purified from soluble fraction using a Ni2^+ affinity purification. Enzymatic activity was determined through measurement of NADH production using the NAD(P)H-Glo Detection System (Promega). Reactions were performed for 3 hours at 25° C. in 0.2 M Tris-HCl, pH 7.5, 0.5 mM NAD^+, 75 μM of substrate (Sigma) and 500 ng purified enzyme in a final volume of 100 μL. After incubation, 20 μL of the reaction was combined with 20 μL luciferase reagent (Promega), incubated at room temperature for 1 hour and read on an Envision Plate Reader (Perkin Elmer).

For data set [4], the system named is HEK293 cells overexpressing HSD17B13 transcript A, transcript D or GFP. As to the kind of experiment: Cell-based conversion of estradiol to estrone in culture media, LC-MS. The arrangement: species or system human. To be noted: overexpressed in HEK293 cells; FIG. 4F. The method, then:
HEK293 cells overexpressing HSD17B13 transcript A, transcript D or green fluorescent protein (GFP, control) were used to investigate the activity of HSD17B13 against estradiol in a cell-based assay. Estradiol (1 μM) was fed to each cell type. After 48 hours, the media was collected and the concentration of estradiol and its converted product estrone were identified and quantified by LC-MS.

Turning to `CCCCCCCC/C=C\CCCCCCCC(=O)O` [oleic acid, reference compound], the “triglyceride (TG) content after oleic acid treatment” value in data set [1] (increasing concentrations of oleic acid, control (GFP), HSD17B13 transcript A and D HepG2 cell lines, FIG. 10B) is given as “increased triglyceride (TG) content to a similar extent”.
As for `CCCCC/C=C\C[C@@H](O)/C=C/C=C/C=C\[C@@H](O)CCCC(=O)O` [leukotriene B4], in data set [2], the “identified as enzymatic substrate of HSD17B13” value is on record as “enzymatic substrates of HS17B13”.

B1: HSD17B13 isoform D: HSD17B13 protein Isoform D, SEQ ID NO:42; prematurely truncated protein encoded by Transcript D of the rs72613567 variant (protein)
chain: MNIILEILLLLITIIYSYLESLVKFFIPQRRKSVAGEIVLITGAGHGIGRQTTYEFAKRQSILVLWDINKRGVEETAAECRKLGVTAHAYVVDCSNREEIYRSLNQVKKEVGDVTIVVNNAGTVYPADLLSTKDEEITKTFEVNILGHFWITKALLPSMMERNHGHIVTVASVCGHEGIPYLIPYCSSKFAAVGFHRGLTSELQALGKTGIKTSCLCPVFVNTGFTKNPSTRLWPVLETDEVVRSLIDGILTNKKMIFVPSYINIFLRLQKVSS
modifications: homo sapien
notes: prematurely truncated protein encoded by Transcript D of the rs72613567 variant
In the case of B1, the “activity towards estradiol in vitro compared to HSD17B13 isoform A” value in data set [3] (recombinant protein, NAD+ cofactor) is given as “greatly reduced activity towards estradiol”. Besides, the “enzymatic activity of the corresponding values for isoform A” value in data set [3] (substrates 17-beta estradiol, leukotriene B4 (LTB4), 13(S)-HODE) is recorded as under 10%. In data set [4], the “conversion of estradiol (substrate) to estrone (product) measured in the culture media” value is “did not show much conversion; also recorded: greatly reduced activity towards estradiol”. For the same molecule, in data set [1], the “intracellular triglyceride content of overexpressing cell lines versus GFP control” value is listed as “No differences in intracellular triglyceride content”.

B2: HSD17B13 isoform A: HSD17B13 protein Isoform A, SEQ ID NO:39; full-length 300 amino acid protein encoded by Transcript A (protein)
chain: MNIILEILLLLITIIYSYLESLVKFFIPQRRKSVAGEIVLITGAGHGIGRQTTYEFAKRQSILVLWDINKRGVEETAAECRKLGVTAHAYVVDCSNREEIYRSLNQVKKEVGDVTIVVNNAGTVYPADLLSTKDEEITKTFEVNILGHFWITKALLPSMMERNHGHIVTVASVCGHEGIPYLIPYCSSKFAAVGFHRGLTSELQALGKTGIKTSCLCPVFVNTGFTKNPSTRLWPVLETDEVVRSLIDGILTNKKMIFVPSYINIFLRLQKFLPERASAILNRMQNIQFEAVVGHKIKMK
modifications: homo sapien
notes: full-length 300 amino acid protein encoded by Transcript A
As to B2, the “conversion of estradiol (substrate) to estrone (product) measured in the culture media” value in data set [4] is given as “showed robust conversion”. The “intracellular triglyceride content of overexpressing cell lines versus GFP control” value in data set [1] is “No differences in intracellular triglyceride content”.
